# From PMC9482650, “Quantitative fragmentomics allow affinity mapping of interactomes” (Nature Communications, 2022)
# T1: SNTG1, Q9NSN8
# T1 sequence (Q9NSN8 52-150, limits assumed, looked up): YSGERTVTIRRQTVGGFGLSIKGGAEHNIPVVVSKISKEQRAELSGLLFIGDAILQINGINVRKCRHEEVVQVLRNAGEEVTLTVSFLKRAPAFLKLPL
# T2: ARHGAP21, Q5T5U3
# T2 sequence (Q5T5U3 45-169, limits assumed, looked up): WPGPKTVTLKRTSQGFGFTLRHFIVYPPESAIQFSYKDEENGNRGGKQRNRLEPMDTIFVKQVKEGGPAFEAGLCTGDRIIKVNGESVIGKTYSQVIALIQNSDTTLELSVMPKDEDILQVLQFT
# T3: DFNB31_2, Q9P202
# T3 sequence (Q9P202 274-371, limits assumed, looked up): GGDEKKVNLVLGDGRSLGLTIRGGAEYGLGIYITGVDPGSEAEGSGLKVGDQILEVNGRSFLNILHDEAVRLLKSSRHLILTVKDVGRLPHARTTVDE
# T4: TJP3_3, O95049
# T4 sequence (O95049 375-456, limits assumed, looked up): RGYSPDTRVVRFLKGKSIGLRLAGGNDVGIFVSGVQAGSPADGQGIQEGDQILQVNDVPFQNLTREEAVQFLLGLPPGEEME
# T5: HTRA3, P83110
# T5 sequence (P83110 354-453, limits assumed, looked up): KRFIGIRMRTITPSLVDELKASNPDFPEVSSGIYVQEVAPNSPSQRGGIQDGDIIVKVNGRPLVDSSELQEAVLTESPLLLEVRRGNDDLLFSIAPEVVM
# T6: MPDZ_12, O75970
# T6 sequence (O75970 1857-1958, limits assumed, looked up): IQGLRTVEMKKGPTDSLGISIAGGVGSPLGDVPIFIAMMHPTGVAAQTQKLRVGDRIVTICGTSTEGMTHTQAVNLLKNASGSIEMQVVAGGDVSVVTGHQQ
# T7: RAPGEF6, Q8TEU7
# T7 sequence (Q8TEU7 525-625, limits assumed, looked up): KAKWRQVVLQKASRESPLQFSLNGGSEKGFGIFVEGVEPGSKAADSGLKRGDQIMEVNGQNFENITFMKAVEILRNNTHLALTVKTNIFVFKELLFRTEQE
# T8: DFNB31_3, Q9P202
# T8 sequence (Q9P202 811-907, limits assumed, looked up): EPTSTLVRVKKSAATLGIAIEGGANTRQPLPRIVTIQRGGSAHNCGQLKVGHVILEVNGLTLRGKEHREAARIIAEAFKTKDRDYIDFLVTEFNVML
# T9: DFNB31_1, Q9P202
# T9 sequence (Q9P202 135-233, limits assumed, looked up): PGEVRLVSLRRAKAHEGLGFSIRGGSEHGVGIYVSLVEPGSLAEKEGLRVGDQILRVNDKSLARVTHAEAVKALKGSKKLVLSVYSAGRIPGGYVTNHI
# T10: APBA2_2, Q99767
# T10 sequence (Q99767 654-744, limits assumed, looked up): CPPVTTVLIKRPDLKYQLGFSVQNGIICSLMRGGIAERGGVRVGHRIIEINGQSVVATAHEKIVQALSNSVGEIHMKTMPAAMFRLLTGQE
# T11: LNX2_2, Q8N448
# T11 sequence (Q8N448 334-432, limits assumed, looked up): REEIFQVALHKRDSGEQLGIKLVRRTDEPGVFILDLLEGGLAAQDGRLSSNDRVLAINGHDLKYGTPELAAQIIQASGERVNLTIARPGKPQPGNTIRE
# T12: CARD11, Q9BXL7
# T12 sequence (Q9BXL7 662-765, limits assumed, looked up): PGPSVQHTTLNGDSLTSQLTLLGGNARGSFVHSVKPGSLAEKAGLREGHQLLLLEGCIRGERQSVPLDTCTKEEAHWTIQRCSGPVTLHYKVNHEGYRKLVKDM
# T13: SNTB1, Q13884
# T13 sequence (Q13884 107-205, limits assumed, looked up): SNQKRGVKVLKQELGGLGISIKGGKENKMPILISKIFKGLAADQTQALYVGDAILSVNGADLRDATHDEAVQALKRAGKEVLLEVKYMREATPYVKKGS
# Tests used:
# Test in all cases: holdup assay
# Design in all cases: key: below the threshold = too weak to quantify, mostly under pKd 3.1 to 4
# Settings in all cases: plain residues with an end cap or a label only (N-terminal biotin on a linker: ado-ado)
# [1] = molecular target: NHERF4_2, Q86UT5
# [2] = molecular target: T1, SNTG1, Q9NSN8
# [3] = molecular target: SCRIB_1, Q14160
# [4] = molecular target: T2, ARHGAP21, Q5T5U3
# [5] = molecular target: T3, DFNB31_2, Q9P202
# [6] = molecular target: PTPN3, P26045
# [7] = molecular target: NOS1, P29475
# [8] = molecular target: PICK1, Q9NRD5
# [9] = molecular target: GIPC2, Q8TF65
# [10] = molecular target: T4, TJP3_3, O95049
# [11] = molecular target: T5, HTRA3, P83110
# [12] = molecular target: T6, MPDZ_12, O75970
# [13] = molecular target: T7, RAPGEF6, Q8TEU7
# [14] = molecular target: T8, DFNB31_3, Q9P202
# [15] = molecular target: MAGI2_6, Q86UL8
# [16] = molecular target: T9, DFNB31_1, Q9P202
# [17] = molecular target: Inadl_4, Q8NI35
# [18] = molecular target: FRMPD4, Q14CM0
# [19] = molecular target: T10, APBA2_2, Q99767
# [20] = molecular target: IL16_3, Q14005
# [21] = molecular target: T11, LNX2_2, Q8N448
# [22] = molecular target: T12, CARD11, Q9BXL7
# [23] = molecular target: T13, SNTB1, Q13884
# [24] = molecular target: SNX27, Q96L92
# [25] = molecular target: Inadl_10, Q8NI35
# Sequence of Inadl_10, Q8NI35 (Q8NI35 1673-1763): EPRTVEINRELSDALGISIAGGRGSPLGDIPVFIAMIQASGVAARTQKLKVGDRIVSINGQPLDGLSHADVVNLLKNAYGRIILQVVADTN
# Sequence of GIPC2, Q8TF65 (Q8TF65 112-203): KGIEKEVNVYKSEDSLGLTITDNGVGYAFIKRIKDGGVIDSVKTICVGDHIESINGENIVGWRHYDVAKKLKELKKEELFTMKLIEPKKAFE
# Sequence of NOS1, P29475 (P29475 9-101): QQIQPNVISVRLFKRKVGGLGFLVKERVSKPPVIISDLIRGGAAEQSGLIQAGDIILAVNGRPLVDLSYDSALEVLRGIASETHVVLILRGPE
# Sequence of FRMPD4, Q14CM0 (Q14CM0 67-160): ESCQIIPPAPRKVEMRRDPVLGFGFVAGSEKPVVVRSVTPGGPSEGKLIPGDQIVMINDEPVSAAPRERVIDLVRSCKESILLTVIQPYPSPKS
# Sequence of IL16_3, Q14005 (Q14005 1107-1207): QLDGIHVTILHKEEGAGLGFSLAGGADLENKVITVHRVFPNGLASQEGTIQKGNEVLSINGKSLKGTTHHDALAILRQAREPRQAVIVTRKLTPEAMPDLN
# Sequence of SCRIB_1, Q14160 (Q14160 718-814): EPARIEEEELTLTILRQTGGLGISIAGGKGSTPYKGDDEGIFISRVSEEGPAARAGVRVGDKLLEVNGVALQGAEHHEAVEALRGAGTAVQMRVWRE
# Sequence of Inadl_4, Q8NI35 (Q8NI35 547-651): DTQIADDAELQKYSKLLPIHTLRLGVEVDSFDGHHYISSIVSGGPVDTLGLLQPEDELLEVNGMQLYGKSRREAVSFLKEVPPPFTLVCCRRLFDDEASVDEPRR
# Sequence of PICK1, Q9NRD5 (Q9NRD5 17-115): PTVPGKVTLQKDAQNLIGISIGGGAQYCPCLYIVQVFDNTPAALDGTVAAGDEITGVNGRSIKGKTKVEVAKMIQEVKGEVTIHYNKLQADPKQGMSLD
# Sequence of NHERF4_2, Q86UT5 (Q86UT5 220-308): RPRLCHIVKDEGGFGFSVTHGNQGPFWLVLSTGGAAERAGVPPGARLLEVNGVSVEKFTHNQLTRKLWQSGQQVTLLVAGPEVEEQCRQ
# Sequence of MAGI2_6, Q86UL8 (Q86UL8 1141-1229): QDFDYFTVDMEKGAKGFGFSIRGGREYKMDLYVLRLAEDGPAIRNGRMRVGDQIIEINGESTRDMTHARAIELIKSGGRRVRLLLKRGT
# Sequence of PTPN3, P26045 (P26045 505-587): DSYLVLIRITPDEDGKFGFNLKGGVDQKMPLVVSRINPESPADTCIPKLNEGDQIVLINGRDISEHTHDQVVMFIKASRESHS
Binder,pKd [1],pKd [2],pKd [3],pKd [4],pKd [5],pKd [6],pKd [7],pKd [8],pKd [9],pKd [10],pKd [11],pKd [12],pKd [13],pKd [14],pKd [15],pKd [16],pKd [17],pKd [18],pKd [19],pKd [20],further results
"FNSYSLTGYV [CLDN2, P57739]",below the threshold,below the threshold,below the threshold,3.94,below the threshold,below the threshold,below the threshold,4.14,below the threshold,4.31,4.6,below the threshold,below the threshold,below the threshold,3.72,below the threshold,below the threshold,below the threshold,below the threshold,below the threshold,pKd [21]: 4.98; pKd [22]: below the threshold; pKd [23]: 3.61; pKd [24]: 4.06; pKd [25]: below the threshold
"VKPQVSESKL [ACOT8, O14734]",below the threshold,below the threshold,4.32,below the threshold,3.62,4.63,below the threshold,3.84,below the threshold,below the threshold,below the threshold,below the threshold,below the threshold,3.71,below the threshold,4.29,below the threshold,3.8,below the threshold,below the threshold,pKd [21]: below the threshold; pKd [22]: below the threshold; pKd [23]: 3.85; pKd [24]: 5.34; pKd [25]: below the threshold
"PRAEAEDSFL [PDGFRB, P09619]",3.66,below the threshold,3.76,4,below the threshold,4.45,3.57,4.2,3.8,3.49,below the threshold,below the threshold,below the threshold,below the threshold,4.26,3.62,below the threshold,4.57,below the threshold,3.5,pKd [21]: 3.54; pKd [22]: below the threshold; pKd [23]: 3.64; pKd [24]: 4.71; pKd [25]: below the threshold
"EALLQMESVA [CAVIN3, Q969G5]",below the threshold,below the threshold,3.56,below the threshold,below the threshold,below the threshold,below the threshold,below the threshold,3.97,below the threshold,below the threshold,below the threshold,below the threshold,below the threshold,below the threshold,below the threshold,below the threshold,below the threshold,3.61,below the threshold,pKd [21]: below the threshold; pKd [22]: below the threshold; pKd [23]: below the threshold; pKd [24]: 4.13; pKd [25]: below the threshold
"EKKTLIGIKL [GOT1L1, Q8NHS2]",below the threshold,below the threshold,below the threshold,4.09,below the threshold,below the threshold,3.56,4.14,below the threshold,below the threshold,below the threshold,below the threshold,below the threshold,4.02,below the threshold,below the threshold,below the threshold,4.47,below the threshold,below the threshold,pKd [21]: below the threshold; pKd [22]: below the threshold; pKd [23]: below the threshold; pKd [24]: below the threshold; pKd [25]: below the threshold
"IKAIVDLTGL [TRAF2, Q12933]",below the threshold,below the threshold,below the threshold,3.74,below the threshold,3.91,below the threshold,below the threshold,below the threshold,below the threshold,below the threshold,below the threshold,below the threshold,below the threshold,below the threshold,below the threshold,below the threshold,3.7,below the threshold,below the threshold,pKd [21]: below the threshold; pKd [22]: below the threshold; pKd [23]: below the threshold; pKd [24]: 3.51; pKd [25]: below the threshold
